{"source": "patent US20090081207A1", "about": "(published 2009)", "binders": {"B1": {"name": "MOR04055 Fab (Fab, V domains shown)", "VH": "QVQLVESGGGLVQPGGSLRLSCAASGFTFSNYAMNWVRQAPGKGLEWVSRISYSGSDTYYADSVKGRFTISRDNSKNTLYLQMNSLRAEDTAVYYCAREGEFGFMYSTLVFDSWGQGTLVTVSS", "VL": "DIELTQPPSVSVAPGQTARISCSGDSIGEQYAHWYQQKPGQAPVLVIYDDNKRPSGIPERFSGSNSGNTATLTISGTQAEDEADYYCGSYTLTNTASVFGGGTKLTVLG"}, "B2": {"name": "MOR04055 IgG (antibody, V domains shown)", "VH": "B1 VH", "VL": "B1 VL"}, "B3": {"name": "MOR04624 Fab (Fab, V domains shown)", "VH": "QVQLVESGGGLVQPGGSLRLSCAASGFTFSSYGMSWVRQAPGKGLEWVSSISYSDSNTYYADSVKGRFTISRDNSKNTLYLQMNSLRAEDTAVYYCARGLGDYGHHHGLSGIFDYWGQGTLVTVSS", "VL": "DIQMTQSPSSLSASVGDRVTITCRASQGISSNLNWYQQKPGKAPKLLIYAASNLQSGPSRFSGSGSGTDFTLTISSLQPEDFAVYYCQQYSDQSYTFGQGTKVEIKR", "notes": "HuCAL GOLD monovalent Fab, kappa"}, "B4": {"name": "MOR04974 IgG1 (antibody, V domains shown)", "VH": "QVQLVESGGGLVQPGGSLRLSCAASGFTFSSYGMSWVRQAPGKGLEWVSGIRAKQSGYATDYAAPVKGRFTISRDNSKNTLYLQMNSLRAEDTAVYYCARGLGDYGHHHGLSGIFDYWGQGTLVTVSS", "VL": "B3 VL with V84T, S91A, D92S, Q93P, S94R, Y95Q", "notes": "also called IgG1 MOR04974"}, "B5": {"name": "MOR04975 Fab (Fab, V domains shown)", "VH": "B4 VH", "VL": "B3 VL with V84T, S91E, D92F, Q93G, S94I, Y95Q", "notes": "also called MQR04975"}, "B6": {"name": "MOR04975 IgG1 (antibody, V domains shown)", "VH": "B4 VH", "VL": "B3 VL with V84T, S91E, D92F, Q93G, S94I, Y95Q"}, "B7": {"name": "MOR04977 Fab (Fab, V domains shown)", "VH": "B4 VH with G50F, R52E, A53P, Q55W, S56R, Y58G, D61H, P65S", "VL": "B3 VL with V84T, D92S, Q93N, S94P, Y95Q"}, "B8": {"name": "MOR04977 IgG1 (antibody, V domains shown)", "VH": "B4 VH with G50F, R52E, A53P, Q55W, S56R, Y58G, D61H, P65S", "VL": "B3 VL with V84T, D92S, Q93N, S94P, Y95Q"}, "B9": {"name": "MOR04985 Fab (Fab, V domains shown)", "VH": "B4 VH", "VL": "B3 VL"}, "B10": {"name": "MOR04985 IgG1 (antibody, V domains shown)", "VH": "B4 VH", "VL": "B3 VL"}, "B11": {"name": "MOR04974 Fab (Fab, V domains shown)", "VH": "B4 VH", "VL": "B3 VL with V84T, S91A, D92S, Q93P, S94R, Y95Q"}, "B12": {"name": "MOR04971 Fab (Fab, V domains shown)", "VH": "QVQLVESGGGLVQPGGSLRLSCAASGFTFSNYAMNWVRQAPGKGLEWVSAIHDNGHTYYPDSVKGRFTISRDNSKNTLYLQMNSLRAEDTAVYYCAREGEFGFMYSTLVFDSWGQGTLVTVSS", "VL": "B1 VL with G88S, L92Y, T93S, N94S, T95D"}, "B13": {"name": "MOR04974 IgG4-Pro (antibody, V domains shown)", "VH": "B4 VH with Q84G", "VL": "B3 VL with Q6G, V84T, S91A, D92S, Q93P, S94R, Y95Q"}, "B14": {"name": "MOR04975 IgG4-Pro (antibody, V domains shown)", "VH": "B4 VH with Q84G", "VL": "B3 VL with R18N, V84T, S91E, D92F, Q93G, S94I, Y95Q"}, "B15": {"name": "MOR04977 IgG4-Pro (antibody, V domains shown)", "VH": "B4 VH with G50F, R52E, A53P, Q55W, S56R, Y58G, D61H, P65S", "VL": "B3 VL with V84T, D92S, Q93N, S94P, Y95Q"}, "B16": {"name": "MOR04624 IgG1 (antibody, V domains shown)", "VH": "B3 VH", "VL": "B3 VL", "notes": "Human IgG1 kappa (MorphoSys HuCAL IgG Vector Kit); also called IgG1 MOR04624"}}, "key": {"human α5β1 integrin [1]": {"target": "T1, human α5β1 integrin (human, UniProt P08648 42-1049; P05556 21-798)", "T1 sequence (P08648 42-1049, chain 1 of 2)": "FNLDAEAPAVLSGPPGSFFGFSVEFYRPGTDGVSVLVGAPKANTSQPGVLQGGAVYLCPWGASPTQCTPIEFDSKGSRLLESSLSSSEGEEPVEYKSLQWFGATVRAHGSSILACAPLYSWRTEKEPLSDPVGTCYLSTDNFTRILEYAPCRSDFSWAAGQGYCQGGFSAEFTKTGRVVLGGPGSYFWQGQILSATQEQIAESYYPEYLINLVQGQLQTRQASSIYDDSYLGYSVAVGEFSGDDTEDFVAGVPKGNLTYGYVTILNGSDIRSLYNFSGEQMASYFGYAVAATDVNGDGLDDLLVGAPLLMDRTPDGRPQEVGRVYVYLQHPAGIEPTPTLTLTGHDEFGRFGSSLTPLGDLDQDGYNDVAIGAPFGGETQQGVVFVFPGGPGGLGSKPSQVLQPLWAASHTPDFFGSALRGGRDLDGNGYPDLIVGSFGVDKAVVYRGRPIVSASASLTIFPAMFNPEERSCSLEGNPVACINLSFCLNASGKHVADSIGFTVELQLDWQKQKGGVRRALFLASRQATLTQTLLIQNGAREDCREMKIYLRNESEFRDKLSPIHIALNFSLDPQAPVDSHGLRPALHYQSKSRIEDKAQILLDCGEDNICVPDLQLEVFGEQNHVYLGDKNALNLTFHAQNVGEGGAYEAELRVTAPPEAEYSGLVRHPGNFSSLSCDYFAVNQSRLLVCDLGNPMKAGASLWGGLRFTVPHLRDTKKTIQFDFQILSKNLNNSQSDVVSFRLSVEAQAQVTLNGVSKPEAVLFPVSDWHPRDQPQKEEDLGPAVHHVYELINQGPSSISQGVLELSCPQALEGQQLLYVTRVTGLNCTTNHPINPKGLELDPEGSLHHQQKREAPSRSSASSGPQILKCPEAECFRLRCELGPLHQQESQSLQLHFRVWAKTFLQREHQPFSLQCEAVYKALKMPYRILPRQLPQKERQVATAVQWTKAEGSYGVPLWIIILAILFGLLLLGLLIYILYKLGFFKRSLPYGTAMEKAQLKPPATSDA", "T1 sequence (P05556 21-798, chain 2 of 2)": "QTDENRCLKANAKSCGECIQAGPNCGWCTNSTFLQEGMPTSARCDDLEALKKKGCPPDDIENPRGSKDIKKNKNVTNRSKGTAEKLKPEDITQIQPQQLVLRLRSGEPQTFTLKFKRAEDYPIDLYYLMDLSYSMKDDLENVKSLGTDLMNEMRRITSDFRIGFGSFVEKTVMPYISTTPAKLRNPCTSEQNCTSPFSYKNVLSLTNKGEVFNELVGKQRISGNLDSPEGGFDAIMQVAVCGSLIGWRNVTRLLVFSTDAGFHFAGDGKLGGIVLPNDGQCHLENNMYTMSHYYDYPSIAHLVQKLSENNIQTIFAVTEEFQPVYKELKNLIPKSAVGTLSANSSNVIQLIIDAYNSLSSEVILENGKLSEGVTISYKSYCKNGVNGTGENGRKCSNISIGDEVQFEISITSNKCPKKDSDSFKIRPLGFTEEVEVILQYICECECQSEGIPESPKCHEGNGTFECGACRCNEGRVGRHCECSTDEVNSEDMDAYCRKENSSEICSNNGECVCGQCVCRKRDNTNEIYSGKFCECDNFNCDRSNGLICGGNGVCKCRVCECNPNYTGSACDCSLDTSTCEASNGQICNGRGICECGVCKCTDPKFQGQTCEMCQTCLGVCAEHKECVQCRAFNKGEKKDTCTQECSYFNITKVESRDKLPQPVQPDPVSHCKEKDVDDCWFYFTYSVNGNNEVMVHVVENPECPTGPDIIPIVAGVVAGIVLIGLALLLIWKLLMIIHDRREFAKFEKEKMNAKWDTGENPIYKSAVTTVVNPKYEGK", "test": "FACS titration on α5β1-positive HUVEC cells, monovalent Fab"}, "human α5β1 integrin [2]": {"target": "T1, human α5β1 integrin", "test": "FACS titration on α5β1-positive HUVEC cells, IgG"}, "human α5β1 integrin [3]": {"target": "T1, human α5β1 integrin", "test": "cell-based or functional assay"}, "human α5β1 integrin [4]": {"target": "T1, human α5β1 integrin", "test": "cell-based or functional assay", "remark": "listed apart in the source"}, "[5]": {"target": "T2, β1-integrin chain on HT29 wt cells (α5-chain negative) (human, UniProt P05556 21-798)", "T2 construct": "whole, on cells; Negative cell control: β1 present at high density, α5 absent", "T2 sequence (P05556 21-798)": "as the sequence (P05556 21-798, chain 2 of 2) above", "test": "FACS on HT29 wt cells, labelled secondary antibody", "experimental": "Affinity matured IgG antibodies were incubated at 10 μg/mL with 5×10⁵ HT29 wt and HT29α5 cells. Specifically bound antibodies were detected with a Cy3-labelled secondary antibody. Upper panel: IIA1 incubated with HT29 wt (left) or HT29α5-cells (right), lower panel: IgG1 MOR04974. The fluorescence shift indicates specific binding to α5 integrin and was found for MOR04975, MOR04977, MOR04985 and MOR04624 (grey area). Antibody isotype controls are negative (black lines (b)). Our anti-integrin antibodies bind to α5-chain transfected cells with the same specificity as the reference antibody IIA1.\nAffinity matured antibodies of the IgG-format were tested for their binding specificity by FACS analysis on HT29 wt vs. HT29α5 cells. HT29 wt cells are α5-negative but do contain the β1-integrin chain. HT29α5 but not the HT29 wt cells are specifically recognized by the IgG1-anti-integrin antibodies and the reference antibody IIA1 as indicated by the fluorescence shift. (FIG. 12)."}, "[6]": {"target": "T2, β1-integrin chain on HT29 wt cells …", "test": "immunoprecipitation from NP40 lysate of surface-biotinylated HT29 wt cells; streptavidin-AP blot", "experimental": "Surface-biotinylated NP40-lysates of HT29α5 and HT29 wt were incubated with Fab coupled to magnetic Dyna beads. The immunoprecipitates were transferred to PVDF-membranes and analysed with streptavidin alkaline phosphatase (AP).\nIIA1 was used as a reference antibody. After intensive washing the precipitates were boiled in SDS-PAGE sample buffer under reducing conditions, blotted to PVDF-membranes and probed with streptavidine-AP. All anti-α5β1 integrin antibodies specifically precipitated a protein double kband of […] which corresponds to the expected molecular weight of the integrin chains α5 and β1 (FIG. 11) and was not found in the HT29 wt cell lysate. The same double band was found with IIA1."}, "[7]": {"target": "T2, β1-integrin chain on HT29 wt cells …", "test": "FACS, HT29 cells (α5-chain negative)"}, "human α5β1 integrin [8]": {"target": "T1, human α5β1 integrin", "test": "cell-based or functional assay", "remark": "listed apart in the source"}}, "note": "Positions count from the first letter of the chain named. Values joined by “and” are separate entries in the source; they are usually repeats but may differ in a detail not shown here. Equal values may be shown once."}
{"binder": "B1", "values": [{"measurement": "Kd", "setting": "human α5β1 integrin [1]", "value": 0.9, "unit": "nM"}]}
{"binder": "B2", "values": [{"measurement": "Kd", "setting": "human α5β1 integrin [2]", "value": 0.5, "unit": "nM"}]}
{"binder": "B3", "values": [{"measurement": "IC50, XTT-proliferation assay on HUVEC", "setting": "human α5β1 integrin [3]", "value": "11.2 µg/ml and 225 nM"}, {"measurement": "Kd", "setting": "human α5β1 integrin [1]", "value": 7.5, "unit": "nM"}]}
{"binder": "B4", "values": [{"measurement": "EC50, inhibition of HUVEC adhesion to fibronectin", "setting": "human α5β1 integrin [4]", "value": "0.4 µg/ml and 2.7 nM"}, {"measurement": "binding result", "setting": "[5]", "value": "no binding (tested: 10 µg/mL)"}]}
{"binder": "B5", "values": [{"measurement": "IC50, XTT-proliferation assay on HUVEC", "setting": "human α5β1 integrin [3]", "value": "0.09 µg/ml and 1.8 nM"}, {"measurement": "binding result", "setting": "[6]", "value": "no binding"}]}
{"binder": "B6", "values": [{"measurement": "EC50, inhibition of HUVEC adhesion to fibronectin", "setting": "human α5β1 integrin [4]", "value": "0.33 µg/ml and 2 nM"}, {"measurement": "binding result", "setting": "[7]", "value": "no binding"}]}
{"binder": "B7", "values": [{"measurement": "IC50, XTT-proliferation assay on HUVEC", "setting": "human α5β1 integrin [3]", "value": "0.09 µg/ml and 1.9 nM"}, {"measurement": "binding result", "setting": "[6]", "value": "no binding"}]}
{"binder": "B8", "values": [{"measurement": "EC50, inhibition of HUVEC adhesion to fibronectin", "setting": "human α5β1 integrin [4]", "value": "0.4 µg/ml and 2.6 nM"}, {"measurement": "binding result", "setting": "[7]", "value": "no binding"}]}
{"binder": "B9", "values": [{"measurement": "IC50, XTT-proliferation assay on HUVEC", "setting": "human α5β1 integrin [3]", "value": "0.09 µg/ml and 1.8 nM"}, {"measurement": "binding result", "setting": "[6]", "value": "no binding"}]}
{"binder": "B10", "values": [{"measurement": "EC50, inhibition of HUVEC adhesion to fibronectin", "setting": "human α5β1 integrin [4]", "value": "0.5 µg/ml and 3.3 nM"}, {"measurement": "binding result", "setting": "[7]", "value": "no binding"}]}
{"binder": "B11", "values": [{"measurement": "IC50, XTT-proliferation assay on HUVEC", "setting": "human α5β1 integrin [3]", "value": "0.06 µg/ml and 1.2 nM"}, {"measurement": "binding result", "setting": "[6]", "value": "no binding"}]}
{"binder": "B12", "values": [{"measurement": "IC50, XTT-proliferation assay on HUVEC", "setting": "human α5β1 integrin [3]", "value": "0.21 µg/ml and 4.3 nM"}, {"measurement": "binding result", "setting": "[6]", "value": "no binding"}]}
{"binder": "B13", "values": [{"measurement": "IC50, transwell migration of HUVEC towards fibronectin", "setting": "human α5β1 integrin [8]", "value": 1, "unit": "µg/mL"}]}
{"binder": "B14", "values": [{"measurement": "IC50, transwell migration of HUVEC towards fibronectin", "setting": "human α5β1 integrin [8]", "value": 1.5, "unit": "µg/mL"}]}
{"binder": "B15", "values": [{"measurement": "IC50, transwell migration of HUVEC towards fibronectin", "setting": "human α5β1 integrin [8]", "value": 1, "unit": "µg/mL"}]}
{"binder": "B16", "values": [{"measurement": "binding result", "setting": "[7]", "value": "no binding"}, {"measurement": "Kd", "setting": "human α5β1 integrin [2]", "value": 3.1, "unit": "nM"}]}
